From patent US20150258192A1, “COMPOSITIONS AND METHODS FOR PREVENTING OR TREATING CHRONIC LUNG ALLOGRAFT DYSFUNCTION (CLAD) AND IDIOPATHIC PULMONARY FIBROSIS (IPF)” (priority 2014, published 2015)
No end group written: not given here.

Experiments:
Test in all cases: Kinase Profiling Assay
Format in all cases: biochemical
Conditions in all cases: peptide 100 μM
p70S6K(h) = target: T1, p70S6K(h) (Homo sapiens, UniProt P23443)
T1 construct: purchased Millipore
Summary of the method: (§1)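 In this 266-kinase specificity panel, every measurement was duplicated. Transfer of labeled phosphate from ATP to a cationic substrate was quantified after the substrate adhered to an anionic filter membrane and was scintillation-counted, then related to a full-activity control.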

PRK2(h) = PRK2(h) (Homo sapiens, UniProt Q16513)
Summary of the method: as §1

PKCθ(h) = PKCθ(h) (Homo sapiens, UniProt Q04759)
Summary of the method: as §1

EphA7(h) = EphA7(h) (Homo sapiens, UniProt Q15375)
Summary of the method: as §1

Txk(h) = target: T2, Txk(h) (Homo sapiens, UniProt P42681)
T2 sequence (P42681 1-527): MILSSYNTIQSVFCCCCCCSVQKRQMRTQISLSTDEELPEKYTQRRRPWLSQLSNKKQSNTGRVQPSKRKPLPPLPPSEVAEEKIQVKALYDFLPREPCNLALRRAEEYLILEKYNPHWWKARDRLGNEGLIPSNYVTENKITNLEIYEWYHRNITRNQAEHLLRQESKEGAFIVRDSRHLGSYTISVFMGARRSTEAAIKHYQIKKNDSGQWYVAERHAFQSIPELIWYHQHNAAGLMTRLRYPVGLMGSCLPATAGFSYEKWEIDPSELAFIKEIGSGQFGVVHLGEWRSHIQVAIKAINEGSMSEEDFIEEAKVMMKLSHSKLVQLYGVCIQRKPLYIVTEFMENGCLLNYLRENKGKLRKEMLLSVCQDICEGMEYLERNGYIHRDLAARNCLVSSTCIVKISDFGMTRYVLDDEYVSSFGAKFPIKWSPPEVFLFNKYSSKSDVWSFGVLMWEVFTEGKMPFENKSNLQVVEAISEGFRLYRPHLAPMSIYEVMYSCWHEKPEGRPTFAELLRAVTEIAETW
Summary of the method: as §1

LKB1(h) = target: T3, LKB1(h) (Homo sapiens, UniProt Q15831)
T3 construct: purchased Millipore
T3 sequence (Q15831 1-433): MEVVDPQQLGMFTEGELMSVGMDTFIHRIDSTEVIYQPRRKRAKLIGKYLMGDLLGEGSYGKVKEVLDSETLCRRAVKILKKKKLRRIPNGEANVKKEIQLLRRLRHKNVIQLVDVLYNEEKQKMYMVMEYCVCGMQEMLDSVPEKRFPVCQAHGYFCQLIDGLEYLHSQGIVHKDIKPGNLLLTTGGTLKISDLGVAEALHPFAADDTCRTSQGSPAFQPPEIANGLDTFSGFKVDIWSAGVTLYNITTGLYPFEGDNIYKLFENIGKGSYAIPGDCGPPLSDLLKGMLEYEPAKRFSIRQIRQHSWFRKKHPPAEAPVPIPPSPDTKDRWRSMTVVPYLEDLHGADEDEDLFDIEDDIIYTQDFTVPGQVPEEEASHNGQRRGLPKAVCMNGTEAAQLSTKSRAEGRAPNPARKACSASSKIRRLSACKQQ
T3 sequence (Q7RTN6 1-431 partner): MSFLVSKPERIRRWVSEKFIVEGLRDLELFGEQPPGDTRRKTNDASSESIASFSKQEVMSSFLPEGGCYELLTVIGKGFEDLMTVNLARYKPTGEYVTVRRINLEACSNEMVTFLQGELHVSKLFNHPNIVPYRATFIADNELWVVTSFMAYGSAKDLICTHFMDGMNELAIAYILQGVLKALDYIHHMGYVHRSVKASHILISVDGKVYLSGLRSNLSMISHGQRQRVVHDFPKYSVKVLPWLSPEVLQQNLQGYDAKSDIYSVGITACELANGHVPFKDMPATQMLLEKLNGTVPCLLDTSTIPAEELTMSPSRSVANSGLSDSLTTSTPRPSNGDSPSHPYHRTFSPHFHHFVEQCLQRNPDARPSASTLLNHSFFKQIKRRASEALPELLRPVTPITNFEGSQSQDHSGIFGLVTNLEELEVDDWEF
T3 sequence (Q9Y376 1-341 partner): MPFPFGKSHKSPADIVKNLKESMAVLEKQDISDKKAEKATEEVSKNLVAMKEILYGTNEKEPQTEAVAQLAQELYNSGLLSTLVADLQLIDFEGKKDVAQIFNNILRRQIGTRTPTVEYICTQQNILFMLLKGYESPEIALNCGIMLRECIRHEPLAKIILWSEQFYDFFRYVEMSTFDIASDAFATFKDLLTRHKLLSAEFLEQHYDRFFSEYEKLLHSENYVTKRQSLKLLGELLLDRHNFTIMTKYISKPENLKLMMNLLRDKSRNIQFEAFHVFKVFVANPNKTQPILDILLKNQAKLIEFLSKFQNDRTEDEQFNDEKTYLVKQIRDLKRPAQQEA
Summary of the method: as §1

TBK1(h) = target: T4, TBK1(h) (Homo sapiens, UniProt Q9UHD2)
T4 construct: purchased Millipore
T4 sequence (Q9UHD2 1-729): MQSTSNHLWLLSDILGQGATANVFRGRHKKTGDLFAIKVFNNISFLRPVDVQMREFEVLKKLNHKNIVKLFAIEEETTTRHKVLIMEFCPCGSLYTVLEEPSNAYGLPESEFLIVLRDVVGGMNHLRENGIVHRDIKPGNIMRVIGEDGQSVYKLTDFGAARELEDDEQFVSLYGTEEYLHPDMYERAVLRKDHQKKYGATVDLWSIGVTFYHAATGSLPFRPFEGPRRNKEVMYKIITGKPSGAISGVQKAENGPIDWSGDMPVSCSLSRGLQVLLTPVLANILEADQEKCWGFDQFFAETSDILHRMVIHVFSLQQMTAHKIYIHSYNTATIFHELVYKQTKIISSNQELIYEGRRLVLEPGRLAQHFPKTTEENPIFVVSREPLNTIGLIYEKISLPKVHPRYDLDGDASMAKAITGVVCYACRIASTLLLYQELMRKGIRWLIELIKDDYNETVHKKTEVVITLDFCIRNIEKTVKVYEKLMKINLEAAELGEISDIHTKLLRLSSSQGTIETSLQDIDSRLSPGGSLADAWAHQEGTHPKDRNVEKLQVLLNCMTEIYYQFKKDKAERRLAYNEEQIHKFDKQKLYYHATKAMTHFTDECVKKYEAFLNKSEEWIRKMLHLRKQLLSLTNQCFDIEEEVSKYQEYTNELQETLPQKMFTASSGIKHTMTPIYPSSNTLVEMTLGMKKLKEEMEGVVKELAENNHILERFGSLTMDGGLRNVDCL
Summary of the method: as §1

Ret(h) = Ret(h) (Homo sapiens, UniProt P07949)
Summary of the method: as §1

T1 sequence (P23443 whole entry): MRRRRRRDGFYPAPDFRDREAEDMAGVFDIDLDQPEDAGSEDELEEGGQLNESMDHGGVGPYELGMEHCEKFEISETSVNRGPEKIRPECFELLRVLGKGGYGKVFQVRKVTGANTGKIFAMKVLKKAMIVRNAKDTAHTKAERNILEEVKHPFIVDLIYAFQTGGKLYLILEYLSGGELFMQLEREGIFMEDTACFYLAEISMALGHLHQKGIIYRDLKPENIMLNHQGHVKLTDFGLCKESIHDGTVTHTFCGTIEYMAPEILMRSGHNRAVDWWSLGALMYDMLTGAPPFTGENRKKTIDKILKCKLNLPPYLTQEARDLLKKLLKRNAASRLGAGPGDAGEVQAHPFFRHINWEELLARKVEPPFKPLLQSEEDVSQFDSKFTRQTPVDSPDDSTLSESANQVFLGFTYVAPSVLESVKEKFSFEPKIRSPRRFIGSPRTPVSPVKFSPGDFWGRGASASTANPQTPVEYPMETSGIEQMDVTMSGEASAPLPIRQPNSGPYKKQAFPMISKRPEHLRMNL
PRK2(h), sequence (Q16513 whole entry): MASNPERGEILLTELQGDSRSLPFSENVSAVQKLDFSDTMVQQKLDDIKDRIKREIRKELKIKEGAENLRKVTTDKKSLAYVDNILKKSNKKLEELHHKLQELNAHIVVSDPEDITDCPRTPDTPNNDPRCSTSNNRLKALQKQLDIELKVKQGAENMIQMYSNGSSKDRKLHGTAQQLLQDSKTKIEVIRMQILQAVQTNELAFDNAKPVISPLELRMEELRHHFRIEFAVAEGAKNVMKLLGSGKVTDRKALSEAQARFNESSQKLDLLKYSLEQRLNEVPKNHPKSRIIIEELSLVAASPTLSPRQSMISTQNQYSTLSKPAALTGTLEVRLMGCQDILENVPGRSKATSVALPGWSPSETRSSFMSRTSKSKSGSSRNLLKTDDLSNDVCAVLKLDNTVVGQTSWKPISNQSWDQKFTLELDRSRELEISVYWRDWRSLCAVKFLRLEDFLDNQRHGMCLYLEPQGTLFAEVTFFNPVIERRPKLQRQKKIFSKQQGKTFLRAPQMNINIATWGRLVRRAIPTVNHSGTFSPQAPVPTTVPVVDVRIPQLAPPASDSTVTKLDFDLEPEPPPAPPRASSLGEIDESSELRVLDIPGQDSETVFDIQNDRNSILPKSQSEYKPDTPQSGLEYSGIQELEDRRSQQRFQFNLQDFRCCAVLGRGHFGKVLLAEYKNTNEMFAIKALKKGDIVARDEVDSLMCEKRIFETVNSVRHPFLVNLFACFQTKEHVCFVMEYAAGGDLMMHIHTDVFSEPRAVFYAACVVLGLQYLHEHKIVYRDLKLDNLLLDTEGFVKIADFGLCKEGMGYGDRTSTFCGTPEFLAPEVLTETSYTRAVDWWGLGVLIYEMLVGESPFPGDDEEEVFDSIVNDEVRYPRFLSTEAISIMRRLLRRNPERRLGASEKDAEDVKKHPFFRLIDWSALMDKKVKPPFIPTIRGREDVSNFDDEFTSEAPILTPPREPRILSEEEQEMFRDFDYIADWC
PKCθ(h), sequence (Q04759 whole entry): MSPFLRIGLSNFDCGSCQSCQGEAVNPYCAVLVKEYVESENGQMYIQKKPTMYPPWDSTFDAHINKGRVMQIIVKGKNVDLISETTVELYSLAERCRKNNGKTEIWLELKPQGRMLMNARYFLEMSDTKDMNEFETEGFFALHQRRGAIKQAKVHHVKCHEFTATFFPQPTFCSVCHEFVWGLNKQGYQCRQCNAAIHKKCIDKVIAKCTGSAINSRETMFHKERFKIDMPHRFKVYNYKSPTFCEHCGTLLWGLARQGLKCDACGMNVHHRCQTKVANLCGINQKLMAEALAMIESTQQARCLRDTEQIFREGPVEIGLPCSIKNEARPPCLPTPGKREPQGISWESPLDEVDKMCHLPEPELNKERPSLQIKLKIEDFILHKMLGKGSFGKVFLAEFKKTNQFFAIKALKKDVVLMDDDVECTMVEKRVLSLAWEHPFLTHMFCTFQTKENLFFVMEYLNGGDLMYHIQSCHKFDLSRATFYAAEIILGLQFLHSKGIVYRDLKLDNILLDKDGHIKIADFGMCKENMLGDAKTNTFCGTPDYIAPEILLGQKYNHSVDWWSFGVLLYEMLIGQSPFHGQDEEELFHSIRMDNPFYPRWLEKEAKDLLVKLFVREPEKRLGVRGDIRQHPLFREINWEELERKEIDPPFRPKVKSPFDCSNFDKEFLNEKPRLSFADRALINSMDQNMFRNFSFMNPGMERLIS
EphA7(h), sequence (Q15375 28-998): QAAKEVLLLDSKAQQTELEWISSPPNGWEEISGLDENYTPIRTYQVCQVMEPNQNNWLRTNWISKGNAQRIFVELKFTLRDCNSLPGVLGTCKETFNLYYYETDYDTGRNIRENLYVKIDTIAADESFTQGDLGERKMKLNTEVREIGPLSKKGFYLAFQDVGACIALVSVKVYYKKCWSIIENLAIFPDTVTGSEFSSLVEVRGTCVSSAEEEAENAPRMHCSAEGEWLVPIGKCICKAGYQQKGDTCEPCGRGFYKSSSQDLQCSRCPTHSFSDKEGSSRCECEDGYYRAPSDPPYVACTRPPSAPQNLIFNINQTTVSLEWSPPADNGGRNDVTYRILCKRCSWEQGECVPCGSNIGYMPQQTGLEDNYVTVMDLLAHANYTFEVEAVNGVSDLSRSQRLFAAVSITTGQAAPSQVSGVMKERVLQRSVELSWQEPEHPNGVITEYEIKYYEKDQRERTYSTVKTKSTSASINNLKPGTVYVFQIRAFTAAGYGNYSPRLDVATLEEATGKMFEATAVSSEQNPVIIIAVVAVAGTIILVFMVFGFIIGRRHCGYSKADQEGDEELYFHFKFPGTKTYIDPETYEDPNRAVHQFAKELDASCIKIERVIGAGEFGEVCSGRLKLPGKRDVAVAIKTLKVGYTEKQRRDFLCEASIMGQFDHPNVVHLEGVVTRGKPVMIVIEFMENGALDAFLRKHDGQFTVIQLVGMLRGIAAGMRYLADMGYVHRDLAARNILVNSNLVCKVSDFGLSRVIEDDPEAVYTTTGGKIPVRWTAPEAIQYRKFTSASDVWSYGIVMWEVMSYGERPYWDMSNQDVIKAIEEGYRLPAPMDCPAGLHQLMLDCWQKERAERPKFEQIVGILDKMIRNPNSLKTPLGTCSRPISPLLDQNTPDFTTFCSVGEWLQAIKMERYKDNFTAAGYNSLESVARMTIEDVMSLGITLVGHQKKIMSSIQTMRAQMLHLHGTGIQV

What does the source list for FAKLAARLYRKALARQLGVAA [MMI-0300]?
% activity (p70S6K(h)): 35%; % activity (PRK2(h)): 33%; % activity (PKCθ(h)): 88%; % activity (EphA7(h)): 159%; % activity (Txk(h)): 48%; % activity (LKB1(h)): 101%; % activity (TBK1(h)): 37%; % activity (Ret(h)): 140%

How did the “% activity” value (p70S6K(h)) turn out when “HRRIKAWLKKIKALARQLGVAA (Mammal) [MMI-0500]” was run?
Its value is 3%.

What about the “% activity” value (PRK2(h)) of the same sequence?
Its value is 7%.

What about the “% activity” value (PKCθ(h)) of the same sequence?
Its value is 62%.

What about the “% activity” value (EphA7(h)) of the same sequence?
Its value is 189%.

What about the “% activity” value (Txk(h)) of the same sequence?
Its value is 10%.

And the “% activity” value (LKB1(h))?
The value was 51%.

What about the “% activity” value (TBK1(h)) of the same sequence?
Its value is 16%.

And the “% activity” value (Ret(h))?
Its value is 174%.

How did the “% activity” value (p70S6K(h)) turn out when KAFAKLAARLYRKALARQLGVAA [MMI-0400] was run?
Its value is 33%.

And the “% activity” value (PRK2(h))?
The value was 27%.

What about the “% activity” value (PKCθ(h)) of the same sequence?
The value was 76%.

And the “% activity” value (EphA7(h))?
The value was 222%.

What about the “% activity” value (Txk(h)) of the same sequence?
The value was 37%.

And the “% activity” value (LKB1(h))?
The value was 89%.

What about the “% activity” value (TBK1(h)) of the same sequence?
Its value is 39%.

What about the “% activity” value (Ret(h)) of the same sequence?
The value was 145%.

How did the “% activity” value (p70S6K(h)) turn out when YARAAARQARAKALARQLGVAA [MMI-0100] was run?
The value was 89%.

What about the “% activity” value (PRK2(h)) of the same sequence?
The value was 72%.

And the “% activity” value (EphA7(h))?
The value was 193%.

And the “% activity” value (Txk(h))?
The value was 87%.

What about the “% activity” value (Ret(h)) of the same sequence?
The value was 108%.

How did the “% activity” value (p70S6K(h)) turn out when “YARAAARQARAKALNRQLGVA (Mammal) [MMI-0200]” was run?
Its value is 84%.

What about the “% activity” value (PRK2(h)) of the same sequence?
Its value is 74%.

And the “% activity” value (PKCθ(h))?
The value was 101%.

And the “% activity” value (EphA7(h))?
Its value is 220%.

What about the “% activity” value (Txk(h)) of the same sequence?
The value was 98%.

And the “% activity” value (LKB1(h))?
The value was 99%.

What about the “% activity” value (TBK1(h)) of the same sequence?
Its value is 98%.

What about the “% activity” value (Ret(h)) of the same sequence?
Its value is 96%.
